# Positions count from the first letter of the chain named.
# B1: L5A7.1 (antibody, V domains shown)
# VH: QVQLQQSGPGLVKPSQTLSLTCVISGDSVSSNSAAWDWIRQSPSRGLEWLGRTYYRSKWYSDYAVSVKSRITITPDTSKNQFSLHLNSVTPEDTAVYYCARAGVRIFGVIVDSLDYWGQGTLVTVSS
# VL: AIQLTQSPSSLSASVGDRVTITCRASQALNSYLAWYQQKPGKAPKLLIFAASTLQSGVPSRFSGSGSGTDFTLTISSLQPEDFATYYCQLSKTFGPGTRVDIE
# B2: L5A7.3 (antibody, V domains shown)
# VH: B1 VH with S33T, K58R, V65D, V104I, V109I
# VL: B1 VL with A28G, L29A, F49Y, T72S, L90E
# B3: L5A7.4 (antibody, V domains shown)
# VH: QVQLQQSGPRLVKPSQTLSLTCAISGDSVSSTSAAWDWIRQSSSRGLEWLGRTYYRSRWYHDYEESVKSRITINADTSKNQFSLQLASVTPEDTAVYYCARAGIRVFGIIVDSLDYWGQGSLVTVSS
# VL: B1 VL with A28G, L29F, K45E, F49Y, L90Q, R99K, E103K
# B4: L5A7.2 (antibody, V domains shown)
# VH: B1 VH with S42T, H85R, I106V
# VL: B1 VL with A28G, L29F, N30S, K45Q, F49Y, L90Q
# Biological target: biotinylated H7 A/Shanghai/02/2013 hemagglutinin (Influenza A virus A/Shanghai/02/2013 …, UniProt R4NN21, strain, biotin (site not stated))
row,Binder,binding result
1,B1,binds
2,B2,binds
3,B3,binds
4,B4,binds

# Biological target: biotinylated H1 A/California/04/2009 hemagglutinin (Influenza A virus A/California/04/2009 …, UniProt C3W5S1, strain, biotin (site not stated))
row,Binder,binding result
1,B1,binds
2,B2,binds
3,B3,binds
4,B4,binds

# Biological target: biotinylated H5 A/Indonesia/5/2005 hemagglutinin (Influenza A virus A/Indonesia/5/2005 …, UniProt A5A5L7, strain, biotin (site not stated))
row,Binder,binding result
1,B1,binds
2,B2,binds
3,B3,binds
4,B4,binds
